The subject of this data set is Cc1cc(=O)oc2cc(O[C@@]3(C(=O)O)C[C@H](O)[C@@H](NC(=O)CO)[C@H]([C@H](O)[C@H](O)CO)O3)ccc12. The data set is described as follows: purified protein. The note with it: 80 mM sodium acetate pH 6.0, 80 mM NaCl, 0.8 mg/ml BSA, 37 °C, 10 mU/ml enzyme.

Data on one substance can be found in paper PMC3678298, “Catalytic preference of Salmonella typhimurium LT2 sialidase for N-acetylneuraminic acid residues over N-glycolylneuraminic acid residues^” (FEBS Open Bio, 2013).

Source text: 4MU fluorescence; Lineweaver-Burk on STSA (Salmonella typhimurium LT2 sialidase)

By Km is commonly meant the substrate concentration at which the rate is half of its maximum. Broadly, the kcat is the maximal rate divided by the concentration of active sites. A word on the kcat/Km: it is the turnover number divided by the Michaelis constant. For the substance “STSA (Salmonella typhimurium LT2 sialidase) (Salmonella enterica subsp. enterica serovar Typhimurium str. LT2)”, the Km was determined as 3.10 mM, the kcat came out at 40 s⁻¹ and the kcat/Km turned out to be 13100 M⁻¹ s⁻¹.
